Where a chain is given by its changes, count along the chain named. Values joined by “and” are separate entries in the source; they are usually repeats but may differ in a detail not shown here. Equal entries are not always repeated.
T1: rat DPEP3 ECD with histidine tag (rat, UniProt Q5U2X4 36-459, limits assumed)
T1 construct: also called rDPEP3-His; ratDPEP3-His; not shown: histidine tag
T1 sequence: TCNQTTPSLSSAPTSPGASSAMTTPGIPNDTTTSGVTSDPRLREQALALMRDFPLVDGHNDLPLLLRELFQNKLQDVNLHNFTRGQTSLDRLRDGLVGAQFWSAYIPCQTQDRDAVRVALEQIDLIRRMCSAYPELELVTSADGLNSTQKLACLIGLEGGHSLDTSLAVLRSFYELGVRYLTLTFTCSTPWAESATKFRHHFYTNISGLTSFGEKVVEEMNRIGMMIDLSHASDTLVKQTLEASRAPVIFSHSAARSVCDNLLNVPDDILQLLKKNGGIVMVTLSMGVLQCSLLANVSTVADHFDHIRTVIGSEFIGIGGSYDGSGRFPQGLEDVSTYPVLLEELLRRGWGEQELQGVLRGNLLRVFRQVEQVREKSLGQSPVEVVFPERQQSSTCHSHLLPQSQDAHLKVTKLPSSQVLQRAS

T2: mDPEP3 (limits assumed)
T2 construct: also called mouse DPEP3-His; mouse DPEP3 ECD with histidine tag
T2 single chain: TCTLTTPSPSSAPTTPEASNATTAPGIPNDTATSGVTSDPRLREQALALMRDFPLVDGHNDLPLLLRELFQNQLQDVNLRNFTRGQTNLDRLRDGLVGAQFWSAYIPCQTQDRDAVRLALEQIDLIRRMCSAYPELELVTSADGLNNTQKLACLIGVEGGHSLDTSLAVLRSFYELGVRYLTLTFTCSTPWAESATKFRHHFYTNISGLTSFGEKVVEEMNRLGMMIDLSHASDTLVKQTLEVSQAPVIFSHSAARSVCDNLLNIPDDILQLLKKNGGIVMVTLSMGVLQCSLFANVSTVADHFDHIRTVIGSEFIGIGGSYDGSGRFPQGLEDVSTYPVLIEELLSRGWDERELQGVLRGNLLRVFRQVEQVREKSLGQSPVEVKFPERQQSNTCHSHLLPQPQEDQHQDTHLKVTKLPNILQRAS

T3: hDPEP3-ECD-His (human, UniProt Q9H4B8 36-463)
T3 construct: also called hDPEP3-His; monomeric hDPEP3-His antigen; not shown: histidine tag
T3 sequence: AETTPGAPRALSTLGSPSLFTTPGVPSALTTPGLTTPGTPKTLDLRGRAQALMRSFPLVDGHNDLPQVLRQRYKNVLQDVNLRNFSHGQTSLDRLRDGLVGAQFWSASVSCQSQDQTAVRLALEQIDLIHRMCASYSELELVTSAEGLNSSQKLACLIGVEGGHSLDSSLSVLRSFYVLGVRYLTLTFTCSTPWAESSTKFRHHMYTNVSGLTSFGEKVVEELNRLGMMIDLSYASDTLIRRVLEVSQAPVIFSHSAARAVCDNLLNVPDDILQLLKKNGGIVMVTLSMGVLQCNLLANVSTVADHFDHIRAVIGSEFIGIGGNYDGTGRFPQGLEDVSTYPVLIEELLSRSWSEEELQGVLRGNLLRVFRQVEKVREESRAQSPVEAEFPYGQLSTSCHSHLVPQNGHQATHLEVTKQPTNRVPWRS

T4: cDPEP3 (Macaca fascicularis, UniProt Q4R7M2)
T4 construct: extracellular domain; also called cynomolgus DPEP3-His; cynomolgus DPEP3 ECD with histidine tag
T4 sequence (single chain, looked up): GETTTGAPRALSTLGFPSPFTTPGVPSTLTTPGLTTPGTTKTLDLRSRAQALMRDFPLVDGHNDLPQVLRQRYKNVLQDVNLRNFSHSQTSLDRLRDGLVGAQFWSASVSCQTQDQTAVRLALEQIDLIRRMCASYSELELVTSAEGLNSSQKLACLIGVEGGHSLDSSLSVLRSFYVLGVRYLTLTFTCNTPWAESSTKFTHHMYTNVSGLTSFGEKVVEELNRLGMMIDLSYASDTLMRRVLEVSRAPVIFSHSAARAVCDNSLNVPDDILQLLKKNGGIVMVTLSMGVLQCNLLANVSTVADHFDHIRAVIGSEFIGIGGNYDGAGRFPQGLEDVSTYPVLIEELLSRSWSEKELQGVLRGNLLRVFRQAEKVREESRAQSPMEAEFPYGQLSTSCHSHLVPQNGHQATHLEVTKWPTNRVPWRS

B1: SC34.91 (antibody, mouse IgG1, V domains shown)
VH: QVQLQQSGAELARPGASVKLSCKASGYTFRSYAISWVKQRTGQGLEWIGEIYPGSGDTYYNENFKGKATLTTDKSSSTAYMQLSSLTSEDSAVYFCARVHDNGSWFPYWGQGTLVTVSA
VL: DIVMSQSPSSLAVSVGEKVTMSCKSSQSLLYSTYQKNYLAWFQQKPGQSPKLLIYWASTRESGVPDRFTGSGSGTDFTLTISSVKAEDLAVYYCQQYYRYPLTFGAGTKLELK
B2: SC34.20 (antibody, mouse IgG1, V domains shown)
VH: B1 VH with A9S, K38R, G54E, D57N, Y59D, E62A, N63Q, D90A, N102Y
VL: B1 VL with A12T
B3: SC34.24 (antibody, mouse IgG1, V domains shown)
VH: B1 VH with A9P, G26E, R30T, S35T, T41A, N63K, N102Y
VL: B1 VL with S22N, T33R, F42Y
B4: SC34.27 (antibody, mouse IgG1, V domains shown)
VH: B1 VH with A33G, S35N, S55R, T58V, N102Y
VL: B1 VL with T33R, Y34N, F42Y, S82N, Q95H
B5: SC34.86 (antibody, mouse IgG1, V domains shown)
VH: B1 VH with R30T, A33T, S35T, D57N, N63K, N102Y
VL: B1 VL with I2T, M21L, T33R, F42Y, I54L, Y97H
B6: SC34.87 (antibody, mouse IgG2a, V domains shown)
VH: QVQLQQSGAELAKPGASVKMSCKASGYTFTSYWMLWVKQRPGQGLEWIGYIDPRNGYTEYNQKFKDKATLTADKSSSTAYMQLSSLTSEDSAVYYCTRGGNVAMDYWGQGTSVTVSS
VL: DIVMSQSPSSLAVSAGEKVTMSCKSSQSLLNSRTRKNYLAWYQQKPGQSPKLLIYWASTRESGVPGRFTGSGSGTDFTLTISSVQAEDLAVYYCKQSYNLWTFGGGTKLEIK
B7: SC34.89 (antibody, mouse IgG1, V domains shown)
VH: B1 VH with R30T, G42R, T58I, Y59H, N61S, E62G, N63K, T69S, N102Y
VL: DIVMSQSPSSLGVSVGEKVTLSCKSSQSLFNKRDQKNYLAWYQQKPGQSPKLLIYWASTRESGVPDRFTGSGSGTDFILTIRSVKAEDLAVYYCHQSYRYPLTFGAGTKLELK
B8: SC34.13 (antibody, mouse IgG2a, V domains shown)
VH: B1 VH with L4V, R30T, D57N, E62G, N63K, H100D, N102Y
VL: B1 VL with M21L, T33R, F42Y, K51R, L53V, A90V, A106S
B9: SC34.16 (antibody, mouse IgG1, V domains shown)
VH: B1 VH with A9T, G26E, R30T, S35T, K38R, D57N, N63T, T72S, Y80S, N102Y
VL: B1 VL with T33R, F42Y, A57S, V91D
B10: SC34.19 (antibody, mouse IgG1, V domains shown)
VH: B1 VH with R30T, S35T, D57N, Y59F, Y60F, N63K, K67R, N102Y
VL: B1 VL with S10A, V19I, S25C, Y31H, T33R, Y34D, F42Y, S82N, S83T, Y97H
B11: SC34.25 (antibody, mouse IgG1, V domains shown)
VH: B1 VH with A9V, L20V, R30T, D57E, N63K, Q82H, F95L, A97G, H100N, N102Y
VL: B1 VL with V15G, T33R, L39V, F42Y
B12: SC34.58 mouse anti-DPEP3 antibody (antibody, V domains shown)
VH: B1 VH with R30T, A33G, I34V, S35N, S55R, T58V, E62D, N102Y
VL: B1 VL with T33R, Y34N, F42Y, Q95H, Y97H, K113R
notes: Mouse hybridoma antibody

Tests used:
[1] = molecular target: T1, rat DPEP3 ECD with histidine tag; test: ELISA, coated antigen
Protocol: (§1) The anti-DPEP3 antibodies were screened by ELISA for cross-reactivity with mouse, rat and cynomolgus DPEP3 and for cross reactivity to hDPEP2, the closest DPEP3 family member. ELISA was conducted as follows. Plates were coated with purified mouse, rat or cynomolgus DPEP3-His or hDPEP2-His at 0.3 μg/mL in 0.2 M carbonate-bicarbonate buffer, pH 9.4 overnight at 4° C. The protein solution was removed and the wells were blocked with 1% (w/v) BSA in PBS (PBSA), 100 μL/well for 1 hour at 37° C. Anti-DPEP3 antibody or a mouse isotype control antibody was then added at 1 μg/mL in 50 μL PBSA for 1 hour at room temperature. After washing with water, 50 μL/well HRP-labeled goat anti-mouse IgG antibody diluted 1:10,000 in PBSA was added for 30 min at room temperature. The plates were washed and developed by the addition of 40 μL/well of the TMB substrate solution (Thermo Scientific) at room temperature. An equal volume of 0.2 M H₂SO₄ was added to stop substrate development. The samples were then analyzed by spectrophotometer at OD 450. […] The cross reactivity results for exemplary DPEP3-specific antibodies can be seen in FIG. 4.

[2] = molecular target: T2, mDPEP3; test: ELISA, coated antigen
Protocol: as §1

[3] = molecular target: T5, hDPEP2 ECD with histidine tag (human, UniProt Q9H4A9 33-463); test: ELISA, coated antigen
T5 construct: also called hDPEP2-His; not shown: histidine tag
Protocol: as §1

[4] = molecular target: T3, hDPEP3-ECD-His; test: BLI ForteBio RED, 200 nM hDPEP3-His, estimated grade
Protocol: The affinity of the antibodies for hDPEP3-His was qualitatively determined from kinetics curves generated with a ForteBio RED as follows. Anti-DPEP3 antibodies were immobilized onto anti-mouse Fc capture biosensors with a contact time of 3 mins. and a flow rate of 1000 rpm. The captured antibody loading from baseline was constant at 0.3-1 units. Following antibody capture and 30 second baseline, the biosensors were dipped into a 200 nM solution of hDPEP3-His for a 4 min. association phase followed by a 3 min. dissociation phase at a shaking rate of 1000 rpm. The biosensors were regenerated by dipping into 10 mM glycine, pH 1.7 following each cycle. The data was processed by subtracting a control mouse IgG surface response from the specific antibody response and data was truncated to the association and dissociation phase. The association and dissociation curves were used to qualitatively estimate the affinities of selected antibodies. […] A designation of “ND” means that the estimated KD was not determined.

[5] = molecular target: T4, cDPEP3; test: ELISA, coated antigen
Protocol: as §1

T5 sequence (Q9H4A9 33-463): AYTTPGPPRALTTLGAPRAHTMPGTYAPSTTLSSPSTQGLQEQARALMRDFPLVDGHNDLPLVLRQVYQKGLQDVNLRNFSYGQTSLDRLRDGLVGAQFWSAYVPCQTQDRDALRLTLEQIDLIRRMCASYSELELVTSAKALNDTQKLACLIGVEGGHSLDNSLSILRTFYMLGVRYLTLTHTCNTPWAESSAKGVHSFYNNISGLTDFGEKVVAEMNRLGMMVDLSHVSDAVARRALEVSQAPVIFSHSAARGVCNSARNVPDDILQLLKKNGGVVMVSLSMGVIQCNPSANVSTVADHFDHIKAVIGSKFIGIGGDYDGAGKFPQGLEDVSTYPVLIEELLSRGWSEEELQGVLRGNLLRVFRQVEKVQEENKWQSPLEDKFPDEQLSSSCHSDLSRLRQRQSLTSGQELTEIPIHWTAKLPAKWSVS

| Binder | binding result [1] | binding result [2] | binding result [3] | Kd [4] | binding result [5] |
| --- | --- | --- | --- | --- | --- |
| B1 | no binding (tested: 1 ug/mL) | no binding (tested: 1 ug/mL) | no binding (tested: 1 ug/mL) | < 5 nM | – |
| B2 | no binding (tested: 1 ug/mL) | no binding (tested: 1 ug/mL) | no binding (tested: 1 ug/mL) | ≥ 5 nM and ≤ 10 nM | – |
| B3 | no binding (tested: 1 ug/mL) | no binding (tested: 1 ug/mL) | no binding (tested: 1 ug/mL) | < 5 nM | – |
| B4 | no binding (tested: 1 ug/mL) | no binding (tested: 1 ug/mL) | no binding (tested: 1 ug/mL) | < 5 nM | – |
| B5 | no binding (tested: 1 ug/mL) | no binding (tested: 1 ug/mL) | no binding (tested: 1 ug/mL) | < 5 nM | – |
| B6 | – | no binding (tested: 1 ug/mL) | no binding (tested: 1 ug/mL) | ≥ 5 nM and ≤ 10 nM | no binding (tested: 1 ug/mL) |
| B7 | no binding (tested: 1 ug/mL) | no binding (tested: 1 ug/mL) | no binding (tested: 1 ug/mL) | < 5 nM | – |
| B8 | no binding (tested: 1 ug/mL) | no binding (tested: 1 ug/mL) | no binding (tested: 1 ug/mL) | ≥ 5 nM and ≤ 10 nM | – |
| B9 | no binding (tested: 1 ug/mL) | no binding (tested: 1 ug/mL) | no binding (tested: 1 ug/mL) | < 5 nM | – |
| B10 | no binding (tested: 1 ug/mL) | no binding (tested: 1 ug/mL) | no binding (tested: 1 ug/mL) | ≥ 5 nM and ≤ 10 nM | – |
| B11 | no binding (tested: 1 ug/mL) | no binding (tested: 1 ug/mL) | no binding (tested: 1 ug/mL) | < 5 nM | – |
| B12 | no binding (tested: 1 ug/mL) | no binding (tested: 1 ug/mL) | no binding (tested: 1 ug/mL) | < 5 nM | – |

Reference: US20170029530A1 (AbbVie / Abbott, published 2017)
